Assay results as given in patent US20170327535A1.

Experiments:
[1] = biological target: aTNFa-Fab (Fab fragment of Infliximab, Remicade); assay: SPR Biacore 3000, Fab on CM5 chip, peptide analyte, 1:1 fit
[2] = biological target: aRSV-Fab (Fab fragment of Palivizumab, Synagis); assay: as above
[3] = biological target: aIgE-Fab (Fab fragment of Omalizumab, Xolair); assay: as above
[4] = biological target: aTNFa-Fab (Fab fragment of Infliximab, Remicade); assay: dynamic binding capacity on a 1 mL-gel column, 1 mg/mL aTNFa-Fab at […], 55% breakthrough

Substance	Ka [1]	Ka [2]	Ka [3]	55% DBC [4]
LB1t-Wild.1d (B1 domain of PpL312 with deletion of the N-terminal region)	30000 M⁻¹	4.4e+06 M⁻¹	1.12e+09 M⁻¹	–
LB2t-Wild.1d (B2 domain of PpL312 with deletion of the N-terminal region)	–	1e+06 M⁻¹	–	–
LB3t-Wild.1d (B3 domain of PpL312 with deletion of the N-terminal region)	–	–	3.77e+08 M⁻¹	–
LB4t-Wild.1d (B4 domain of PpL312 with deletion of the N-terminal region)	300000 M⁻¹	1.38e+07 M⁻¹	1.08e+09 M⁻¹	–
LB5t-Wild.1d (B5 domain of Protein L of Peptostreptococcus magnus 312 strain with deletion of the N-terminal region, single domain)	700000 M⁻¹	–	4.43e+08 M⁻¹	–
LC1t-Wild.1d (C1 domain of PpL3316 with deletion of the N-terminal region)	–	2.3e+06 M⁻¹	2.71e+07 M⁻¹	–
LC2t-Wild.1d (C2 domain of PpL3316 with deletion of the N-terminal region)	–	9.2e+06 M⁻¹	–	–
LC3t-Wild.1d (C3 domain of PpL3316 with deletion of the N-terminal region)	–	8.7e+06 M⁻¹	–	–
LC4t-Wild.1d (C4 domain of PpL3316 with deletion of the N-terminal region)	–	1.93e+07 M⁻¹	4.18e+09 M⁻¹	–
commercially available Protein L carrier (HiTrap Protein L, GE Healthcare Bioscience)	–	–	–	4.8 mg/mL/gel
